The source of these data is PMC4323994 (Immunology and cell biology, 2014).

Where no end group is shown, it is not given here. Some results are limits rather than exact numbers.

The target in experiment [1] is HLA-DR molecule, DRB1*1101 (human). Description: ELISA. (An ELISA detects its analyte on a solid surface through an enzyme-linked reagent.)
Experiment [2] deals with HLA-DR molecule, DRB1*0401 (human). Description: ELISA.

QATFMVFQALAQYQKDAP (also: amino and carboxyl ends blocked) [C3d_(269–286)] displayed an IC50 in experiment [1] of less than 2000 nM.

In the case of VPPVVRWLNEQRYYGGGY (also: amino and carboxyl ends blocked) [C3d_(248–265)], the IC50 in experiment [1] is less than 2000 nM.

As to GKQLYNVEATSYALLALLQLKDFD (also: amino and carboxyl ends blocked) [C3d_(223–246)], the IC50 in experiment [2] and in experiment [1] was less than 2000 nM throughout.

For orientation: IC50 means the midpoint of a concentration-inhibition curve.
